Laboratory results from patent US20140274782A1, “AFFINITY REAGENTS AND METHODS FOR DETECTION, PURIFICATION, AND PROTEOMIC ANALYSIS OF METHYLATED PROTEINS” (The Board of Trustees of the Leland Stanford Junior …, priority 2013, published 2014).

Tests used:
G9a and GLP = target: T1, G9a and GLP (Homo sapiens, UniProt Q96KQ7+Q9H9B1); assay: Triple SILAC pull-down after UNC0638 treatment of 293T cells, DMSO/UNC0638 ratio of protein captured by 3×MBT; type: cell-based; design: cells were treated for 24 hours with UNC0638 at 2.5 μM or DMSO vehicle control; endogenous in cells; host or cells: HEK 293T; conditions: for Protein Ratios DMSO/UNC0638: SILAC ratio of protein captured by 3xMBT, 293T cells treated 24 hours with UNC0638 at 2.5 μM or DMSO;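 for all read-outs here: mass spectrometry (Q-Exactive) SILAC quantitation, DMSO/UNC0638 ratio computed after subtracting 3×MBTD355N mutant pull-down background, only proteins with at least twofold 3×MBT over mutant signal considered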
T1 sequence (Q96KQ7 2-1210 limits assumed): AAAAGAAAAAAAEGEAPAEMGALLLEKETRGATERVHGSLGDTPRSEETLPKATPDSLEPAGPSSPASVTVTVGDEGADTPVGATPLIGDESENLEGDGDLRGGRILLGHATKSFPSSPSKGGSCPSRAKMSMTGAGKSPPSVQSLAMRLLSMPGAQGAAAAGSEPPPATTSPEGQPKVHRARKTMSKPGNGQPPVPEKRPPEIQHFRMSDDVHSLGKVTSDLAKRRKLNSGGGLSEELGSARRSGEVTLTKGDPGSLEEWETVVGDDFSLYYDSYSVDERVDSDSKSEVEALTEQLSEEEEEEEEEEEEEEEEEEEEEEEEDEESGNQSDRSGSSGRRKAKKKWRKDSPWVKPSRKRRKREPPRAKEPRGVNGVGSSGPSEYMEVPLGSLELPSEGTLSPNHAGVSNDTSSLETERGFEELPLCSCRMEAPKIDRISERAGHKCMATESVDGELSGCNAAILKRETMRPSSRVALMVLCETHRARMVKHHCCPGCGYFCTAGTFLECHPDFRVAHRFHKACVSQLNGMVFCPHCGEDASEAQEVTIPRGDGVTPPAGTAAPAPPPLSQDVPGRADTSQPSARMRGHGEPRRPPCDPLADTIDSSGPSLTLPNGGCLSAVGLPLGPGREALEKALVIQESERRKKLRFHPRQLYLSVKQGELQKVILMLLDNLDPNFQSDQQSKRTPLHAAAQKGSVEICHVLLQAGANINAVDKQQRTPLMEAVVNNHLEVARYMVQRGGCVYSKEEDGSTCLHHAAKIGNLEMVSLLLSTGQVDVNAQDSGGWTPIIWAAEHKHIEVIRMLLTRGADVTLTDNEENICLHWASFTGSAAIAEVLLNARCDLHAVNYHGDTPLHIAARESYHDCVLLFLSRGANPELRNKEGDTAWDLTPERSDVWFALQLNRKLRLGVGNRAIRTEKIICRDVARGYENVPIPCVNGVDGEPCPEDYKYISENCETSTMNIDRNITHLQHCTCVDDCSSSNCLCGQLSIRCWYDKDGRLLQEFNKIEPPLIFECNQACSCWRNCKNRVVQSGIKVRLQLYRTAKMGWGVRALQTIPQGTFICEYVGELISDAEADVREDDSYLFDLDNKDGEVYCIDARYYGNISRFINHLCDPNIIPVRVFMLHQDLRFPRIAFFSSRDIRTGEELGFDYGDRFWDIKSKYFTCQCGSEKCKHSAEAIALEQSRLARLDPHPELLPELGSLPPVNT
T1 sequence (Q9H9B1 2-1298 limits assumed): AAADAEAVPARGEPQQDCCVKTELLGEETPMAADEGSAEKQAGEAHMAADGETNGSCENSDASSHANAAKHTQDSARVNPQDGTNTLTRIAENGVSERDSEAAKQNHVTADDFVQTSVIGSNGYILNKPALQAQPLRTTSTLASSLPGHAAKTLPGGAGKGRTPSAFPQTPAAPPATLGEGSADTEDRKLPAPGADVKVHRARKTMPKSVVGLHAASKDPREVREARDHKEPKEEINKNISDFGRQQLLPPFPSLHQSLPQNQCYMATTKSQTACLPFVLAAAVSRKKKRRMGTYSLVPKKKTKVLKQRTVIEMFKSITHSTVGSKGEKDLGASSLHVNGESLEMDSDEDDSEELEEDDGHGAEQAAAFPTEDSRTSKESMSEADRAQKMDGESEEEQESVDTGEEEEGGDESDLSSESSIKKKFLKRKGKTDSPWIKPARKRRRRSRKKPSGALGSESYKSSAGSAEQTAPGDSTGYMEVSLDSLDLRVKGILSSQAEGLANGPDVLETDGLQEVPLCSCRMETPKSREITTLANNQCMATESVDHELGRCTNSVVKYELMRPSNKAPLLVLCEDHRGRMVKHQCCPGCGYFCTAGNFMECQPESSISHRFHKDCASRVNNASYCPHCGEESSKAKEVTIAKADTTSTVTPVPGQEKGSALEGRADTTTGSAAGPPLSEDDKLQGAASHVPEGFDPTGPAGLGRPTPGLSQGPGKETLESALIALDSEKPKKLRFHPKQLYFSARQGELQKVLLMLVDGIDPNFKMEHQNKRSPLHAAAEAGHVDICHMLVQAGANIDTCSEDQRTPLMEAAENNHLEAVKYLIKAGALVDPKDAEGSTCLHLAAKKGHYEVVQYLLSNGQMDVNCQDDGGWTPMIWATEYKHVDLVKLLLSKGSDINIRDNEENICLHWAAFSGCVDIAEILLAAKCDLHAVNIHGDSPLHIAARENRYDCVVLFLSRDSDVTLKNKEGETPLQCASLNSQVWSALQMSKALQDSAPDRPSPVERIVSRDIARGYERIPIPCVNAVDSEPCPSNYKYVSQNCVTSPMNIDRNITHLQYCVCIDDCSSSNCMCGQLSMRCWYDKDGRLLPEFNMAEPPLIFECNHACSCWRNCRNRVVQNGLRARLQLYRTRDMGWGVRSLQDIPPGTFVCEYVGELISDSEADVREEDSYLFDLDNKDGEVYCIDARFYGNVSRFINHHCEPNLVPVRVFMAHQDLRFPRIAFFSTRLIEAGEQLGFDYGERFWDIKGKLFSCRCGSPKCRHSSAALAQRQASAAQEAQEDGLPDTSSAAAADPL

3×MBT domain of L3MBTL1 = assay: Triple SILAC pull-down, 3xMBT/3xMBTD355N ratio (cytoplasmic, nuclear and chromatin fractions of 293T cells); type: binding, human; conditions: SILAC ratio; for Protein Ratios 3xMBT/D355N: pull-down by 3xMBT vs 3xMBTD355N, 293T cells;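 for all read-outs here: proteins quantified with MaxQuant, requiring at least two unique peptides and quantification in both label directions, normalized to the mean of proteins from a digested loading control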

Molecule | Relative to UNC0638 UNC Heavy (G9a and GLP; SILAC ratio DMSO/UNC0638 of protein pulled down with 3xMBT, UNC0638 in heavy SILAC media) | Relative to UNC0638 UNC Light (G9a and GLP; SILAC ratio DMSO/UNC0638 of protein pulled down with 3xMBT, UNC0638 in light SILAC media) | Protein Ratios DMSO/UNC0638 (G9a and GLP) | Relative to UNC0638 Average (G9a and GLP; average of UNC Light and UNC Heavy experiments) | Candidate G9a/GLP target (G9a and GLP; reduced association with 3xMBT after UNC0638 treatment) | 3xMBT/D355N UNC Heavy (3×MBT domain of L3MBTL1; pull-down 3xMBT vs 3xMBTD355N, experiment with UNC0638 in heavy SILAC media) | 3xMBT/D355N UNC Light (3×MBT domain of L3MBTL1; pull-down 3xMBT vs 3xMBTD355N, experiment with UNC0638 in light SILAC media) | Protein Ratios 3xMBT/D355N (3×MBT domain of L3MBTL1)
Metastasis-associated protein 1 (protein) MAANMYRVGDYVYFENSSSNPYLIRRIEELNKTANGNVEAKVVCFYRRRDISSTLIALADKHATLSVCYKAGPGADNGEEGEIEEEMENPEMVDLPEKLKHQLRHRELFLSRQLESLPATHIRGKCSVTLLNETESLKSYLEREDFFFYSLVYDPQQKTLLADKGEIRVGNRYQADITDLLKEGEEDGRDQSRLETQVWEAHNPLTDKQIDQFLVVARSVGTFARALDCSSSVRQPSLHMSAAAASRDITLFHAMDTLHKNIYDISKAISALVPQGGPVLCRDEMEEWSASEANLFEEALEKYGKDFTDIQQDFLPWKSLTSIIEYYYMWKTTDRYVQQKRLKAAEAESKLKQVYIPNYNKPNPNQISVNNVKAGVVNGTGAPGQSPGAGRACESCYTTQSYQWYSWGPPNMQCRLCASCWTYWKKYGGLKMPTRLDGERPGPNRSNMSPHGLPARSSGSPKFAMKTRQAFYLHTTKLTRIARRLCREILRPWHAARHPYLPINSAAIKAECTARLPEASQSPLVLKQAVRKPLEAVLRYLETHPRPPKPDPVKSVSSVLSSLTPAKVAPVINNGSPTILGKRSYEQHNGVDGNMKKRLLMPSRGLANHGQARHMGPSRNLLLNGKSYPTKVRLIRGGSLPPVKRRRMNWIDAPDDVFYMATEETRKIRKLLSSSETKRAARRPYKPIALRQSQALPPRPPPPAPVNDEPIVIED | 0.36 log base 2 | 0.56 log base 2 | 1.4 | 0.46 log base 2 | ✓ | 0.90 log base 2 | 4.28 log base 2 | 6.0
Peroxiredoxin-2 (protein, UniProt P32119 2-198, looked up) Peroxiredoxin-2: ASGNARIGKPAPDFKATAVVDGAFKEVKLSDYKGKYVVLFFYPLDFTFVCPTEIIAFSNRAEDFRKLGCEVLGVSVDSQFTHLAWINTPRKEGGLGPLNIPLLADVTRRLSEDYGVLKTDEGIAYRGLFIIDGKGVLRQITVNDLPVGRSVDEALRLVQAFQYTDEHGEVCPAGWKPGSDTIKPNVDDSKEYFSKHN | – | – | 2.3 | – | – | – | – | 8.6
Splicing regulatory glutamine/lysine-rich protein 1 (protein, UniProt Q8N9Q2 1-155, looked up) Protein SREK1IP1: MAVPGCNKDSVRAGCKKCGYPGHLTFECRNFLRVDPKRDIVLDVSSTSSEDSDEENEELNKLQALQEKRINEEEEKKKEKSKEKIKLKKKRKRSYSSSSTEEDTSKQKKQKYQKKEKKKEKKSKSKKGKHHKKEKKKRKKEKHSSTPNSSEFSRK | – | – | 4.4 | – | – | – | – | 2.9
Cleavage and polyadenylation specificity factor subunit 2 (protein, UniProt Q9P2I0 1-782, looked up) Cleavage and polyadenylation …: MTSIIKLTTLSGVQEESALCYLLQVDEFRFLLDCGWDEHFSMDIIDSLRKHVHQIDAVLLSHPDPLHLGALPYAVGKLGLNCAIYATIPVYKMGQMFMYDLYQSRHNTEDFTLFTLDDVDAAFDKIQQLKFSQIVNLKGKGHGLSITPLPAGHMIGGTIWKIVKDGEEEIVYAVDFNHKREIHLNGCSLEMLSRPSLLITDSFNATYVQPRRKQRDEQLLTNVLETLRGDGNVLIAVDTAGRVLELAQLLDQIWRTKDAGLGVYSLALLNNVSYNVVEFSKSQVEWMSDKLMRCFEDKRNNPFQFRHLSLCHGLSDLARVPSPKVVLASQPDLECGFSRDLFIQWCQDPKNSIILTYRTTPGTLARFLIDNPSEKITEIELRKRVKLEGKELEEYLEKEKLKKEAAKKLEQSKEADIDSSDESDIEEDIDQPSAHKTKHDLMMKGEGSRKGSFFKQAKKSYPMFPAPEERIKWDEYGEIIKPEDFLVPELQATEEEKSKLESGLTNGDEPMDQDLSDVPTKCISTTESIEIKARVTYIDYEGRSDGDSIKKIINQMKPRQLIIVHGPPEASQDLAECCRAFGGKDIKVYMPKLHETVDATSETHIYQVRLKDSLVSSLQFCKAKDAELAWIDGVLDMRVSKVDTGVILEEGELKDDGEDSEMQVEAPSDSSVIAQQKAMKSLFGDDEKETGEESEIIPTLEPLPPHEVPGHQSVFMNEPRLSDFKQVLLREGIQAEFVGGVLVCNNQVAVRRTETGRIGLEGCLCQDFYRIRDLLYEQYAIV | – | – | 3.1 | – | – | – | – | 8.1
